US11066655B2, “RNA polymerase, methods of purification and methods of use” (President and Fellows of Harvard College, priority 2013, dated 2021)

B1: Syn5 RNAP: single subunit DNA-dependent RNA polymerase from marine cyanophage Syn5, amino acid sequence SEQ ID NO:23 (protein)
chain: MSFDLIARQLQRETEAAELARKRLQDARREANERSYASSNIESRKAIATFLDPIAQRIGERLFTLRRGTGAVDAAEVYKHLKNADHHHLALITMKTALDVLGKDPEPQIQQLTTAIGRNIQLELRLTYYAEENPELYKQASRFFHAGTGTRQKATVIKLKFNREGIEWDQWSRVTCHKVGQWLMLAMADVTGWIERATDRTSGGRKTKTRICYSREFLQHRDTILAAAEQLAFCQWPMLCPPIEWSNDHNGGYLSEQIRRVNPLIRKTGPLGTRKQGDIPLAMLNNLQGQAYKVNPEVLDIANHCYESNVTVGKFIRHAPLPVPPSPGEDCTEDQLTAYKRARREAEDFNAQISQKNWRTTEVMYVARKYADEASFWMPASFDYRGRVYFLNTALNPQGTDFDKALLYFAEEGPVNEWWLSFHVATTYGLDKETMVNRVQWARDNHELIDRIASDPVRHTEWHDADEPWCFLAACLEYKACVIDGTKQTSGLPIGIDATCSGLQHLAAMTRCGRTAALVNVTPTDKPADAYKTVAQASLKHLPKEQHEWITRKVTKRPVMCTPYGVTMSSARGYIRDQLVKDGHKEDLRSPGVLNGIVKAIFNEAIPEVIPGPVQVMAWLKRSAGQIIDRGDSTITWTTPSGFEVVQDLKKSKTYEVKTRIMGGARIKLQVGDGFTDEPDRDHHKSALAPNVVHSNDASLLHLTFAFWDKPFTVIHDCVLGRSCDMDQMGSDIRLHFAEMYKADVMQDWADQVGVELPVDLIKNTLDIDSVNQSLYFFS
modifications: Amino acid sequence of a cyanophage Syn5 RNAP

Key:
Syn5 promoter = experiment: Cross recognition of promoters, gel transcription assay; format: biochemical, cyanophage Syn5; settings: for transcription from a Syn5 promoter: T7 DNA fragment with T7 promoter replaced by Syn5 promoter
Procedure: FIGS. 3A-3C depict characterization of the Syn5 promoter. A) Determination of the 3′-end of Syn5 promoter. 3′-dATP, 3′-dGTP, 3′-dUTP replaced ATP, GTP and UTP, respectively, as chain terminator to sequence the 5′-end of Syn5 RNAP transcript on a template same as template 1 in FIG. 2B. Once the 5′-terminus of the transcript was determined, the sequence preceding it should be the promoter and the 3′-end of the promoter can thus be defined. A 25% TBE-urea gel was used for this assay. B) Cross recognition between Syn5 and T7 transcription systems. Syn5 RNAP synthesizes runoff products on a fragment of T7 DNA provided the T7 promoter is replaced by a Syn5 promoter (lane a). Syn5 RNAP fails to produce transcripts if the first nucleotide downstream of the promoter is changed from G to T (lane b). […] T7 RNAP produces runoff and “N+1” products upon its own promoter (lane e). Sequences of templates can be found in Table 1. C) Schematic showing the identity of the two promoters based on the above data and previous bioinformatics analysis on the Syn5 and P-SSP7 genomes, respectively. Syn5 RNAP transcribes DNA fragments containing a Syn5 promoter to produce transcripts (>1500 for template 1, lane 1; and >200 nt for template 3, lane 3).
For the gel assay results shown in FIGS. 1, 2, 3, and 13, reaction mixtures (20 μl) contained 40 mM Tris-HCl (pH 7.9), 6 mM MgCl2, 2 mM spermidine, 10 mM DTT, 200 µM[…]P, GTP and UTP, 10 µM [[…]-^32P]CTP, 1.5 U/µl RNaseOUT™ recombinant ribonuclease inhibitor (Invitrogen), 100 nM Syn5 or T7 RNAP, and DNA templates as described in the figure legends (either 2 nM phage genomic DNA, 4 nM purified PCR products, or 1 µM synthetic dsDNA fragments). Reaction mixtures were incubated at 24° C. for 30 min. The reaction mixtures described in FIG. 6 contained 40 mM Tris-HCl (pH 8.0), 200 µM[…]P, GTP and UTP, 10 µM [[…]-^32P]CTP, 1.5 U/µl RNaseOUT™, 50 nM Syn5 RNAP, DNA templates, and various amounts of MgCl2, FeCl2, MnCl2 and KCl as described in the figure legends. […] After electrophoresis, gels were dried and analyzed using a Fuji BAS 1000 Bioimaging Analyzer.

[1] = system: linearized pET24-Syn5RNAP; experiment: Long run-off RNA synthesis and incorporation of modified nucleotides (yield by A260); format: biochemical
Procedure: FIGS. 12A-12B depict synthesis of long run-off product and the incorporation of modified nucleotides by Syn5 and T7 RNA polymerase. A) On the linearized plasmid template as shown in the schematic, the production of RNA by either RNA polymerase (10 nM) was analyzed on agarose gel as lane 2. […] Lane 3 and 4 show the same RNA synthesis when CTP was replaced by 5mCTP and UTP by Ps-UTP, respectively. B) Incorporation of UTP or Ps-UTP into small RNA by 22, 67, and 200 nM Syn5 and T7 RNA polymerase as analyzed by denaturing TBE polyacrylamide gel. Full-length run-off product and the N+1 product are shown.
The plasmid pET24 harboring the Syn5 RNAP gene (pET24-S5RNAP) that contains a single Syn5 promoter in the RNAP gene and a single T7 promoter preceding the gene was used for filter binding assay as shown in FIG. 8. pET24-S5RNAP was also linearized by EcoRI treatment and recovered by gel extraction to serve as template for FIG. 12A.
For the results shown in FIG. 12A, reaction mixtures (10 μl) contained 40 mM Tris-HCl pH 8.0, 6 mM MgCl2, 2 mM spermidine, 10 mM DTT, 600 µM[…]P, GTP, CTP (or 5Me-CTP), and UTP (or Pseudo-UTP), 1.5 U/µl RNaseOUT™ recombinant ribonuclease inhibitor, 0.04 U/µl yeast inorganic pyrophosphatase, 10 nM linearized (NotI treated) pET24-Syn5RNAP, 0 or 160 mM KCl, and 10 nM Syn5 or T7 RNAP. Syn5 reaction was carried out at RT and T7 at 37° C. RNA products were then purified with RNA Clean & Concentrator™-5 kit into a final solution of 10 µl and 5 µl each was mixed with 5 µl denaturing RNA loading dye. Samples were then heated at 65° C. for 5 min and loaded onto 1.6% TAE agarose gel. RNA products were visualized by ethidium bromide staining. For FIG. 12B, reaction mixtures (10 μl) containing 40 mM Tris-HCl pH 8.0, 6 mM MgCl2, 2 mM spermidine, 10 mM DTT, 200 µM[…]P, GTP and UTP (or Pseudo-UTP), 10 µM [[…]-^32P]CTP, 1.5 U/µl RNaseOUT™ recombinant ribonuclease inhibitor, 0.5 μM DNA templates S5P-tDNAR or T7P-tDNAR, and various amount of Syn5 or T7 RNAP were incubated at RT (for Syn5 RNAP) or 37° C. (for T7 RNAP) for 30 min before adding of one unit of DNase I to each reaction mixture and an additional incubation of 15 min at 37° C. Reactions were then terminated by the addition of 4 µl of loading dye containing 95% formamide and 40 mM EDTA. Samples were then heated at 90° C. for 1 min and 4 µl sample each was loaded onto 6% TBE-Urea denaturing polyacrylamide gel. After electrophoresis, gels were dried and analyzed using a Fuji BAS 1000 Bioimaging Analyzer.

T7 promoter = experiment: Cross recognition of promoters, gel transcription assay; format: biochemical, bacteriophage T7; settings: T7 DNA fragment with T7 Φ1.1 B promoter
Procedure: FIGS. 3A-3C depict characterization of the Syn5 promoter. A) Determination of the 3′-end of Syn5 promoter. 3′-dATP, 3′-dGTP, 3′-dUTP replaced ATP, GTP and UTP, respectively, as chain terminator to sequence the 5′-end of Syn5 RNAP transcript on a template same as template 1 in FIG. 2B. Once the 5′-terminus of the transcript was determined, the sequence preceding it should be the promoter and the 3′-end of the promoter can thus be defined. A 25% TBE-urea gel was used for this assay. B) Cross recognition between Syn5 and T7 transcription systems. Syn5 RNAP synthesizes runoff products on a fragment of T7 DNA provided the T7 promoter is replaced by a Syn5 promoter (lane a). Syn5 RNAP fails to produce transcripts if the first nucleotide downstream of the promoter is changed from G to T (lane b). […]
For the gel assay results shown in FIGS. 1, 2, 3, and 13, reaction mixtures (20 μl) contained 40 mM Tris-HCl (pH 7.9), 6 mM MgCl2, 2 mM spermidine, 10 mM DTT, 200 µM[…]P, GTP and UTP, 10 µM [[…]-^32P]CTP, 1.5 U/µl RNaseOUT™ recombinant ribonuclease inhibitor (Invitrogen), 100 nM Syn5 or T7 RNAP, and DNA templates as described in the figure legends (either 2 nM phage genomic DNA, 4 nM purified PCR products, or 1 µM synthetic dsDNA fragments). […] After electrophoresis, gels were dried and analyzed using a Fuji BAS 1000 Bioimaging Analyzer.

[2] = CTP and UTP present, 1500 nt run-off transcript, optimal temperature of each RNAP

| Molecule | transcription from a Syn5 promoter (Syn5 promoter) | yield of RNA ([1]; 160 mM KCl) | yield of RNA, based on A260 [1, 2] | yield of RNA, based on A260 ([1]; CTP replaced by 5mCTP) [µg] | yield of RNA, based on A260 ([1]; UTP replaced by Ps-UTP) [µg] | transcription from a T7 promoter (T7 promoter) | first nucleotide after promoter changed from G to T (Syn5 promoter; FIG. 3B lane b) | yield relative to that in the absence of salt ([1]; 160 mM KCl) |
| --- | --- | --- | --- | --- | --- | --- | --- | --- |
| T7 RNAP: RNA polymerase encoded by bacteriophage T7, from New England Biolabs [reference compound] | does not initiate transcription but does catalyze some non-specific RNA synthesis | completely inhibited | 0.64 µg | 0.75 | 0.59 | initiates transcription and produces a runoff transcript |  |  |
| B1 | produce a run-off product of the expected size | 0.31 µg | 0.69 µg | 0.76 | 0.63 | does not recognize a T7 promoter | unable to incorporate UTP as the first ribonucleotide | about 50% |
